Results taken from paper PMC4676284 (mBio, 2015).

B1: Bartonella grahamii strain as4aup VirB8, soluble C-terminal periplasmic domain (domain or fragment)
chain: ALTPLKTVEPFVIRVDNSTGIIDTVSALKESPNDYDEAITRYFASQYVRAREGFQASEAENNFRLVSLLSSPKEQNRFGKWYAGNNPESPQNIYHNMIATVTIKSISFISKDLIQVRYYKTVRDFNEKENISHWISILNFSYVNAHISTSDRLINPLGFQVSEYRSDPEVIK
B2: Bartonella birtlesii strain LL-WM9 TrwG, soluble C-terminal periplasmic domain (domain or fragment)
chain: QPAPTPLVLRVDNTTGAVDVISVMREHETSYGEVVDRYWLNQYVLNRETYDYDTIQLNYDTTALLSTAAVQQEFYKIYEGEDARDKVLSNKARITVKVRSIQPNGRGQATVRFTTQQHDSTGAVGVKQHQIATIGYTYVGAPMKSSDRLLNPLGFQVTSYRTDPEILLNN
B3: Bartonella grahamii strain as4aup TrwG, soluble C-terminal periplasmic domain (domain or fragment)
chain: QPAPTPLVLRVDNTTGAVDVISVMREHETSYGEVVDRYWLNQYVLNRENYDYDTIQLNYDTTALLSAASVQQEYYKIYDGENARDKVLSNKARITVKVRSIQLNGLGQATVRFTTQQLDSSGATTGPKQHQIATIGYTYVGAPMKSSDRLLNPLGFQITSYRSDPEILLND

Molecular target: the molecule itself
Test: crystal structure

**Q.** With B1 as the protein, how does the “stoichiometry N” value read?
**A.** Its value is 2.

**Q.** With B2 as the protein, how does the “stoichiometry N” value read?
**A.** The value was 2.

**Q.** For B3, which “stoichiometry N” value is on record?
**A.** Its value is 2.
